# Target: phosphodiesterase 6 delta subunit (PDE6δ), N-terminal histidine-tagged (UniProt O43924 1-150)
# Assay: FP; mantGppNHp-loaded Arl; stopped-flow
# Sequence of phosphodiesterase 6 delta subunit (PDE6δ), N-terminal histidine-tagged (O43924 whole entry, stated change not applied): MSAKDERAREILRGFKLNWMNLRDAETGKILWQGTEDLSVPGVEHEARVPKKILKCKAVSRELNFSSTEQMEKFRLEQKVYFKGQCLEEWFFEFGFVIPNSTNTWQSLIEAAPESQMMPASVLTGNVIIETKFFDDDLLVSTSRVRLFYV
row,Binder,koff
1,"full-length Arl2, C-terminal histidine-tagged, bound to GppNHp or mantGppNHp (natural protein) MGLLTILKKMKQKERELRLLMLGLDNAGKTTILKKFNGEDVDTISPTLGFNIKTLEHRGFKLNIWDVGGQKSLRSYWRNYFESTDGLIWVVDSADRQRMQDCQRELQSLLVEERLAGATLLIFANKQDLPGALSCNAIQEALELDSIRSHHWRIQGCSAVTGEDLLPGIDWLLDDISSRVFTAD",0.33 s⁻¹
2,"N-terminally truncated Arl2 (aa 17-178), bound to mantGppNHp (domain or fragment) LRLLMLGLDNAGKTTILKKFNGEDVDTISPTLGFNIKTLEHRGFKLNIWDVGGQKSLRSYWRNYFESTDGLIWVVDSADRQRMQDCQRELQSLLVEERLAGATLLIFANKQDLPGALSCNAIQEALELDSIRSHHWRIQGCSAVTGEDLLPGIDWLLDDISS",0.98 s⁻¹

# Reference: paper PMC5512577 (2016)
